According to US9422450B2, “Surface coated structures and methods” (ARCH BIOPHYSICS, INC., priority 2009, dated 2016):
Bridges are numbered along the chain shown (N, C = ends). Where no end group is shown, it is not given here.

Experiment: Corrosion resistance (Icorr, Ecorr, corrosion rate, Rp) of coated stainless steel
Assay type: physicochemical
Details: pilin conjugates on stainless steel

## E-PAK: pilin peptide conjugated to an E-coil (negatively charged leucine zipper) peptide (DGLWKCTSDQDEQFIPKGCSR; disulfide 6-19; also: conjugated to E-coil peptide)
Unmodified 0.0547
  Corrosion Rate: 0.1981 mpy
Unmodified 4.2
  Ecorr: 87.2 mV
Unmodified 303.141
  Rp: 121.722 Ohms/cm^2
Unmodified 802
  Icorr: 1940 nAmps
